Patent publication US20220112276A1 (Janssen / Centocor, published 2022)
Residue numbers refer to the chain shown, from its start.

B1: 01E11R2 His-tagged VHH (VHH)
VHH: QVQLVESGGGLVQTGGSLRLSCAASGLTFSSYTMGWFRQAPGKEREFVAAISWGGASTWYADSVKGRFTISRDNAKTMVYLQMNGLKPEDTAVYYCAKGRNNGYATAVRAYDYWGQGTLVTVSS
B2: 01G02R2LS His-tagged VHH (VHH)
VHH: QVQLVESGGGLVQAGDSLALSCAGSGDTFSNYAMGWFRQAPGKEREFVADISWYGANIGYADSVKGRFTISRDNAKNMVTLRMNSLKPEDTAVYYCAADRNHWPVKGDYWGQGTQVTVSS
B3: 03D01R3 His-tagged VHH (VHH)
VHH: EVQLVESGGGLVQPGGSLRLSCAASGFTFRTYYMGWFRQAPGKEREFVGVTRSSDDVTYYADSVKGRFTISRDNAKNTVYLQMSRLKPEDTAVYYCAAKPVPITRYSFPQIGEEYDYWGQGTLVTVSS
B4: 02G04R3 His-tagged VHH (VHH)
VHH: QVQLVESGGGLVQAGGSLRLSCAANGRAANAYAVGWFRQAPGKEREFVAHIRWNGGRTAYADSVKGRFTISRDDAKNTVYLQMDSLKPEDTAVYYCAEDTNPDAFGDLRLPSEYEYWGQGTQVTVSS
B5: 02B03R3 His-tagged VHH (VHH)
VHH: EVQLVESGGGLVQSGGQLRLSCAASGSIASIRDMAWYRQAPGKQRELVAIFARGGTTHYADSVKGRFTISRDNAKNTVYLQMNSLEPEDTAAYYCNAEVATMFQPGFRDYWGRGTLVTVSS
B6: 01A03R3L His-tagged VHH (VHH)
VHH: B5 VHH with S14P, I31V, E46G
B7: 01C03R3L His-tagged VHH (VHH)
VHH: B5 VHH with E1Q, S14P, Q17R, A29F, A35G, T56S, F103I, R113Q
B8: 02H04R3 His-tagged VHH (VHH)
VHH: B5 VHH with S14P, Q17R, A29F, A35G, T56S, F103I, R113Q, L116Q
B9: 01C02R3LS His-tagged VHH (VHH)
VHH: QVQLVESGGGLVQAGDSLRLSCAASGRTRTTYGMGWFRQAPGKEREFVTTITWSGSTNYKYYADSVKGRFTISRDNAKNTVYLQMNSLKPDDTAVYYCAASTVLTDPRVPTEYDYWGQGTQVTVSS
B10: 01B10R3L His-tagged VHH (VHH)
VHH: QVQLVESGGGLVQAGDSLRLSCAASGRTFTTYVMGWFRQPPGKEREFVATISWSGSTTYKYYADSVKGRFTISRDNAKNTVYLQMNSLKPEDTAVYYCAASTVVADPRAPNEYDYWGQGTQVTVSS
B11: 02E01R3LS His-tagged VHH (VHH)
VHH: B9 VHH with R29F, T105R
B12: 01G08R3LS His-tagged VHH (VHH)
VHH: B9 VHH with R29F, A40G, T49A, A63T, D91E, V109R, P110L, T111N
B13: 01H06R3L His-tagged VHH (VHH)
VHH: B9 VHH with Q1E, S56P, V81A
B14: 01C08R2L His-tagged VHH (VHH)
VHH: B9 VHH with Q1E, R29F, M34V
B15: 01H11R2LS His-tagged VHH (VHH)
VHH: B9 VHH with Q1E, R29L, T49A, T52K, D91E, S101G, T105G, P110L, T111N, Q121L
B16: 01B01R3 His-tagged VHH (VHH)
VHH: QVQLVESGGGLVQAGGSLRLSCAASGRTFSSYAMGWFRQAPGKEREFVAVISWSGGSTYYADSVKGRFTISRDNAKNTVYLQMNSLKPEDTAVYYCASGEQPGSNRPYIPEQPIEFMPTDYPSWYDYWGQGTLVTVSS
B17: 01F03R2 His-tagged VHH (VHH)
VHH: B16 VHH with L133Q
B18: 03A08R3 His-tagged VHH (VHH)
VHH: QVQLVESGGGLVQAGGSLRLSCAASGRTSSIYGMGWFRQAPGKEREFVAAISWSAGRTYHADSVKGRFTISRDNAKNMVYLQMDKMKPGDTAVYYCAARRAPELLSDYTQKPEEIGTYHYWGQGTLVTVSS
B19: 01C01R2LS His-tagged VHH (VHH)
VHH: QVQLVESGGGLQQAGGSLRLSCAASGRTVTVMTVGWFRQAPGKEREFVAAITMYGERTYYADSVKGRFTISRDNAKNTVDLQMNSLKPEDAAVYYCAARTYVSGIYDRFDDYNYWGQGTQVTVSS
B20: 02D06R3 His-tagged VHH (VHH)
VHH: QVQLVESGGGLVQPGGRLRLSCAASGSIFSIRDMAWYRQAPGKQREWVAIAARGGSTHYADSVKGRFTISRDNAKNTVYLQMNTLEPEDTAAYYCNAEVATMIQPGFRDYWGQGTQVTVSS
B21: 01A09R2 His-tagged VHH (VHH)
VHH: EVQLVESGGGLVQAGGSLRLSCAASGRTFSSNPMGWFRQAPGKEREFVAAISWSGGGTYYADSVKGRFTISRDNAKNTVTLQMNSLKPEDTAVYYCASRDYSDPISLWVEDREYDYWGQGTQVTVSS
B22: 01F01R2 His-tagged VHH (VHH)
VHH: B21 VHH with E1Q
B23: 03B07R3 His-tagged VHH (VHH)
VHH: B21 VHH with E1Q, Q122L
B24: 03D05R3 His-tagged VHH (VHH)
VHH: B21 VHH with D111G, Q122L
B25: 02G06R3 His-tagged VHH (VHH)
VHH: EVQLVESGGGLVQAGGSLRLSCAASGRTFDSYAMGWFRQAPGKEREFVAAISWTGGSTDYADSVKGRFTISRDNAKNTVYLQMDSLKPEDTAVYYCAAEVVGRDVTTMYRVSGLEYEYDYWGQGTQVTVSS
B26: 02G03R3 His-tagged VHH (VHH)
VHH: EVQLVESGGGLVQAGGSLRLSCAASGMPDNIFSIKTMGWYRQAPGKERELVAAITSGGSTNYGDSVKDRFTISRDRIENTVNLEMNNLKPEDTAVYTCHADLTYIRFQDMEYWGKGTQVTVSS
B27: 02H11R3 His-tagged VHH (VHH)
VHH: EVQLVESGGGSVQAGGSLRLSCAASGRTFSNYAMGWFRQAPGKEREFVAGISRSGGSTYSADSVKGRFTISRDNAKNTVYLQMNSLKPEDTAVYYCAADGLDYALGFRGDYWGQGTQVTVSS
B28: 01B05R2 His-tagged VHH (VHH)
VHH: EVQLVESGGGLVQAGGSLRLSCAASGRSLSFDTYAMGWFRQAPGKEREFVASIDWNGGSTYYADSVKGRFTISRDNARNTVNLRMNSLKPDDTAVYYCAAARYYTSGTYFPANYWGQGTQVTVSS
B29: 03H05R3 His-tagged VHH (VHH)
VHH: QVQLVESGGGLVQAGGSLSLSCAASGRSLSFDTYAMSWFRQAPGKEREFVASIDWNGGSTSYADSMKGRFTISRDNAKNTVNLRIRSLKPDDTAVYFCASARYYIGGTYFPANYWGQGTQVTVSS
B30: 01H05R3 His-tagged VHH (VHH)
VHH: B28 VHH with E1Q, S30G, A35G, G37A, V66M, R78K, G107S
B31: 03C10R3 His-tagged VHH (VHH)
VHH: B28 VHH with E1Q, A14R, S30G, S59N, R78K, V95A, Q117R, Q120L
B32: 03C05R3 His-tagged VHH (VHH)
VHH: EVQLVESGGGLVKAEGSLRLSCVASTSIASINVMGWYRQAPGKERELVARISGGGITHYAESVEGRFTISRDNAKNTVHLQMNGLKPEDTAAYYCKADVFASSGHVTTYWGQGTLVTVSS
B33: 01A01R3 His-tagged VHH (VHH)
VHH: EVQLVESGGGLVQAGGSLRLSCAASGSGRTFTSYTMGWFRQAPGKEREFVSALTWADDSTYYKYYADSMKGRLTISRDNAKNTVYLQMNSLKPEDTAVYYCVATGRGLTYDPRDRRKYDYWGQGTQVTVSS
B34: 01C01R2L His-tagged VHH (VHH)
VHH: QVQLVESGGGLVQAGGSLRLSCAASGRTLRSYIVGWFRQAPGKEREFVAAVTWSDGRRVTADPVKGRFTISRDNAKNTVYLQMDSLKPEDAAVYYCAVSRGGAYEYSRAYEYWGQGTLVTVSS

These binders were tested against T1, recombinant human pIgR (hpIgR) (human, UniProt P01833 19-638, limits assumed) (assay: ELISA, periplasmic VHH, BSA subtracted).
T1 construct: probably the ECD
Method: Initial Library Screening: After each panning round showing enrichment, 94 individual clones were expressed and tested in an off-phage initial screen for specific binding to mpIgR or hpIgR (respectively depending on the antigen used). Screening of monoclones in an off-phage format was performed by transforming the phagemid pool into a non-amber-suppressor strain of E. coli and picking random colonies. The VHH proteins were recovered in the periplasmic fraction by performing osmotic shock. Periplasmic fractions containing His-tagged nanobodies were tested for binding to hpIgR or mpIgR. Bound nanobody was detected with a polyclonal anti-alpaca VHH domain antibody. Each clone was also tested for non-specific binding to BSA in parallel. The ELISA values obtained on BSA were subtracted from the ELISA values obtained on the respective pIgR antigen.
Repeat Testing of Positive Hits: The hits identified in the initial screen of the phage pools were re-tested for binding to either hpIgR or mpIgR. Periplasmic fractions were prepared again by performing osmotic shock. Periplasmic fractions containing His-tagged nanobodies were tested for binding to mpIgR. In this assay, bound nanobody was detected with an anti-VHH antibody. Each clone was also tested for non-specific binding to BSA in parallel. The ELISA values obtained on BSA were subtracted from the ELISA values obtained on the respective pIgR antigen.

T1 sequence (P01833 19-638 limits assumed): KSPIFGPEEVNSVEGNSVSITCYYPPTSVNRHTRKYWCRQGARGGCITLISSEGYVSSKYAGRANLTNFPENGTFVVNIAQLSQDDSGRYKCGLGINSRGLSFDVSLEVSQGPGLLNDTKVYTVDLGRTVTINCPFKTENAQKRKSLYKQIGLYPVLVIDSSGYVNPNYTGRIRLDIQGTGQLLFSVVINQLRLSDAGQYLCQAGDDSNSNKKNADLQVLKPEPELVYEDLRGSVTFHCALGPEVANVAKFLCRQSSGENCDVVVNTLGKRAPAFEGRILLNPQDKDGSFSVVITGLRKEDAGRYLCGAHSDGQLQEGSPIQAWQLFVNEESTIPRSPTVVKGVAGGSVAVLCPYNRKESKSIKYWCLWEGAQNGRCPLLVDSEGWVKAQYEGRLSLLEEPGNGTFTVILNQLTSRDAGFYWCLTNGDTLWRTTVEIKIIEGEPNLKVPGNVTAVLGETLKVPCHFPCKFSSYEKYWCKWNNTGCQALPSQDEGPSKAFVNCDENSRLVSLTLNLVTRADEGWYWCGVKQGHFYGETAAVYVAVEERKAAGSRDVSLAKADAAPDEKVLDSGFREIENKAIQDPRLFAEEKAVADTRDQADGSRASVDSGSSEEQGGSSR

Row | Binder | ELISA (OD)
1 | B1 | 2.01
2 | B2 | 1.62
3 | B3 | 1.84
4 | B4 | 0.93
5 | B5 | 0.44
6 | B6 | 2.03
7 | B7 | 1.77
8 | B8 | 2.4
9 | B9 | 2.01
10 | B10 | 2.04
11 | B11 | 1.54
12 | B12 | 2.41
13 | B13 | 1.87
14 | B14 | 1.98
15 | B15 | 0.43
16 | B16 | 1.68
17 | B17 | 2.1

Row | Binder | ELISA (OD)
18 | B18 | 2.1
19 | B19 | 0.82
20 | B20 | 2.16
21 | B21 | 1.86
22 | B22 | 2.2
23 | B23 | 2.19
24 | B24 | 2.29
25 | B25 | 1.8
26 | B26 | 2
27 | B27 | 1.97
28 | B28 | 2.07
29 | B29 | 0.46
30 | B30 | 1.27
31 | B31 | 1.77
32 | B32 | 0.99
33 | B33 | 0.91
34 | B34 | 1.97
